The text below walks through data of patent US20230203463, “RNA-GUIDED NUCLEASES AND ACTIVE FRAGMENTS AND VARIANTS THEREOF AND METHODS OF USE” (LifeEDIT Therapeutics, Inc., published 2023).

For one data set, the system named is T1, APG05405 (Bacillus sp.).
T1 sequence: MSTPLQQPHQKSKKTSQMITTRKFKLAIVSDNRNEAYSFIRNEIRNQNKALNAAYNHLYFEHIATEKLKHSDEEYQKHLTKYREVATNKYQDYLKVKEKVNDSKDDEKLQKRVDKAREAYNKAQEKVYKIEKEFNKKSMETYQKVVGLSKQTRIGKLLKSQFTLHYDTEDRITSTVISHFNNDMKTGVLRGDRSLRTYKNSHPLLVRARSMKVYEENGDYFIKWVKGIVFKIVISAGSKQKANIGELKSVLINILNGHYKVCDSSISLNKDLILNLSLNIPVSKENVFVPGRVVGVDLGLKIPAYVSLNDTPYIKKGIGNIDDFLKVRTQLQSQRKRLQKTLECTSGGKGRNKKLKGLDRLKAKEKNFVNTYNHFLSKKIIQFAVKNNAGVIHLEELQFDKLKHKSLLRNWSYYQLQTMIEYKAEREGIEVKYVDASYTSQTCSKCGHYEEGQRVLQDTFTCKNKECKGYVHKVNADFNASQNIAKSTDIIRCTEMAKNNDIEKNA
The experiment in a line: cleavage_in_vitro. Particulars: trans cleavage.

A further data set concerns the target T2, APG09624 (Bacillus sp.).
T2 chain: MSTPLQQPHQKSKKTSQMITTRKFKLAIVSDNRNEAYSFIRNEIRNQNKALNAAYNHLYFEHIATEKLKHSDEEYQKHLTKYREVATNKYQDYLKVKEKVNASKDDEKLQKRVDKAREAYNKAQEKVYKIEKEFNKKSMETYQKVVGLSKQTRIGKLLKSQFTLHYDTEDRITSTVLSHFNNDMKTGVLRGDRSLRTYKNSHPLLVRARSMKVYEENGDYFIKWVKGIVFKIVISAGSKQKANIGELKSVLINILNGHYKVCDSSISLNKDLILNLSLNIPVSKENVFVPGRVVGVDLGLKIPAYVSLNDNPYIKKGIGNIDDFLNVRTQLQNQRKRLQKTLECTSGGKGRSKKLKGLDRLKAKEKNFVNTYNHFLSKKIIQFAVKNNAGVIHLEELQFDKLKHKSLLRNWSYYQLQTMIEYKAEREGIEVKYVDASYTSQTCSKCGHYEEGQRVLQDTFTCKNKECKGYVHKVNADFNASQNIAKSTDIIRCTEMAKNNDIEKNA
Description: thermal shift; peaks 39 and 44 C vs 38 C without RNA. Conditions: tags: C-terminal His10. As for the experimental part:
(§1) RNA binding was confirmed by differential scanning fluorimetry (Niesen, F.H., H. Berglund, and M. Vedadi. 2007. Nat. Protoc. 2: 2212-2221). Dual RNA complexes were produced by mixing an excess of crRNA with tracrRNA in Annealing Buffer (Synthego, 60 mM KCl 6 mM HEPES pH 7). The candidate effector protein and guide RNA (either dual RNA complex or sgRNA) were incubated at final concentrations of 0.5 µM effector protein and 1 µM guide RNA in phosphate buffered saline (PBS, Thermo Fisher). These were incubated for 20 minutes at room temperature and then mixed 1:1 with Sypro Orange dye solution that had been diluted in PBS. A melt curve was obtained measuring fluorescence intensity (FI) as a function of temperature and the first derivative of the melt curve (dFI/dT) was calculated. A shift in the plot of dFI/dT as a function of temperature of the putative RNP relative to the original nuclease indicates RNA binding and was used to evaluate putative guide RNA combinations. […] Peak 1 refers to the temperature associated with the largest observed peak for the given sample. If a second peak is observed, it is indicated in the Peak 2 column. Interpretation of the data regarding the formation of a complex is indicated in the “Binding?” column Table 3. “Yes” indicates binding was observed. “N/A” indicates sufficient data was not available to determine if binding could occur.

A further data set deals with T3, APG05405 (Bacillus sp.).
T3 chain: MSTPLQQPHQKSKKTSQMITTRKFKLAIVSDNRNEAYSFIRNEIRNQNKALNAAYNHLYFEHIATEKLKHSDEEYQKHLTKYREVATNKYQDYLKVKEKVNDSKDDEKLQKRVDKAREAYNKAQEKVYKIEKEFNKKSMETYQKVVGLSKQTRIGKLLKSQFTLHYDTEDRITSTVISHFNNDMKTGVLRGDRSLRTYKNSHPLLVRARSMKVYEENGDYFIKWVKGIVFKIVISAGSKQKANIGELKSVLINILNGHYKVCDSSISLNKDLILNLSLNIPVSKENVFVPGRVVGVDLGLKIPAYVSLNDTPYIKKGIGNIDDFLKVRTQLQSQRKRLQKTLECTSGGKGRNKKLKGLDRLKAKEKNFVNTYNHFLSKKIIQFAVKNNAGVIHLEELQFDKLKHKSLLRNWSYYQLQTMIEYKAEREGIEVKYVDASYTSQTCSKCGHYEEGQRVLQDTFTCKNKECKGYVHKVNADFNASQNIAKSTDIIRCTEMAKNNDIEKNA
Description: thermal shift; peak 43 C vs 36 C without RNA. Particulars: tags: C-terminal His10. The procedure:
as §1

“GGGAAACAGCUAGAAUGUAACUUAAAGUAGGUCAAUGUUUAAAUUCGAUGUUGCAAUUUGUUUGGACAAGUGGAUUAAAACGUUCCUUGAAAAUCAUAUAAAGCAGCCAGUUUACGGGCUUGGGCGAAUUUGCGUCCAAAGGGUGAGGCCAGGUGUAAGUAAGAACCUACAAAAGCACUCACCAAAGGGUCAAAAAGAUCCUACAUGGAUGUGAGGAUUGAAAUACUACAACAGCCACAACG / TCGTCGGCAGCGTCAGATGTGTATAAGAGACAGAACGACGGCCAGTGAATTNNNNNTGGAATGGGAACTAAAGTAATGGCAAACGAATTCGTAGGATCCTCTAGAGTCGACCTGCTGTCTCTTATACACATCTCCGAGCCCACGAGAC / GTCTCGTGGGCTCGGAGATGTGTATAAGAGACAGCAGGTCGACTCTAGAGGATCCTACGAATTCGTTTGCCATTACTTTAGTTCCCATTCCANNNNNAATTCACTGGCCGTCGTTCTGTCTCTTATACACATCTGACGCTGCCGACGA [sgRNA Gsg.2 ; dsPCR3]”: the activity in the data set on APG05405 (Bacillus sp.) (non-matching guide) was 102 AU/min.

Take “GGGAAACAGCUAGAAUGUAACUUAAAGUAGGUCAAUGUUUAAAUUCGAUGUUGCAAUUUGUUUGGACAAGUGGAUUAAAACGUUCCUUGAAAAUCAUAUAAAGCAGCCAGUUUACGGGCUUGGGCGAAUUUGCGUCCAAAGGGUGAGGCCAGGUGUAAGUAAGAACCUACAAAAGCACUCACCAAAGGGUCAAAAAGAUCCUACAUGGAUGUGAGGAUUGAAAUUGGAAUGGGAACUAAAGU / TCGTCGGCAGCGTCAGATGTGTATAAGAGACAGAACGACGGCCAGTGAATTNNNNNNNNACTACAACAGCCACAACGTCTATATCATGGGATCCTCTAGAGTCGACCTGCTGTCTCTTATACACATCTCCGAGCCCACGAGAC / GTCTCGTGGGCTCGGAGATGTGTATAAGAGACAGCAGGTCGACTCTAGAGGATCCCATGATATAGACGTTGTGGCTGTTGTAGTNNNNNNNNAATTCACTGGCCGTCGTTCTGTCTCTTATACACATCTGACGCTGCCGACGA [sgRNA Gsg.3 ; dsPCR2]”: the activity with APG05405 (Bacillus sp.) (non-matching guide) amounted to 78 AU/min.

Turning to “GGGAAACAGCUAGAAUGUAACUUAAAGUAGGUCAAUGUUUAAAUUCGAUGUUGCAAUUUGUUUGGACAAGUGGAUUAAAACGUUCCUUGAAAAUCAUAUAAAGCAGCCAGUUUACGGGCUUGGGCGAAUUUGCGUCCAAAGGGUGAGGCCAGGUGUAAGUAAGAACCUACAAAAGCACUCACCAAAGGGUCAAAAAGAUCCUACAUGGAUGUGAGGAUUGAAAUUGGAAUGGGAACUAAAGU / TCGTCGGCAGCGTCAGATGTGTATAAGAGACAGAACGACGGCCAGTGAATTNNNNNTGGAATGGGAACTAAAGTAATGGCAAACGAATTCGTAGGATCCTCTAGAGTCGACCTGCTGTCTCTTATACACATCTCCGAGCCCACGAGAC / GTCTCGTGGGCTCGGAGATGTGTATAAGAGACAGCAGGTCGACTCTAGAGGATCCTACGAATTCGTTTGCCATTACTTTAGTTCCCATTCCANNNNNAATTCACTGGCCGTCGTTCTGTCTCTTATACACATCTGACGCTGCCGACGA [sgRNA Gsg.3 ; dsPCR3]”, the activity with APG05405 (Bacillus sp.) (NEBuffer 2, 37 C, degenerate 5 bp 5' of target, PAM not determined) came out at 780 AU/min.

The molecule “GGGAAACAGCUAGAAUGUAACUUAAAGUAGGUCAAUGUUUAAAUUCGAUGUUGCAAUUUGUUUGGACAAGUGGAUUAAAACGUUCCUUGAAAAUCAUAUAAAGCAGCCAGUUUACGGGCUUGGGCGAAUUUGCGUCCAAAGGGUGAGGCCAGGUGUAAGUAAGAACCUACAAAAGCACUCACCAAAGGGUCAAAAAGAUCCUACAUGGAUGUGAGGAUUGAAAUACUACAACAGCCACAACG / TCGTCGGCAGCGTCAGATGTGTATAAGAGACAGAACGACGGCCAGTGAATTNNNNNNNNACTACAACAGCCACAACGTCTATATCATGGGATCCTCTAGAGTCGACCTGCTGTCTCTTATACACATCTCCGAGCCCACGAGAC / GTCTCGTGGGCTCGGAGATGTGTATAAGAGACAGCAGGTCGACTCTAGAGGATCCCATGATATAGACGTTGTGGCTGTTGTAGTNNNNNNNNAATTCACTGGCCGTCGTTCTGTCTCTTATACACATCTGACGCTGCCGACGA [sgRNA Gsg.2 ; dsPCR2]” displayed an activity in the data set with APG05405 (Bacillus sp.) (NEBuffer 2, 37 C, degenerate 8 bp 5' of target, PAM not determined) of 768 AU/min.

B1: crRNA 143 + tracrRNA 145 (ssRNA)
RNA 1: GUCACAUCCUACAUGGAUGUGAGGAUUGAAAUUGGAAUGGGAACUAAAGUAAUGG
RNA 2: AAACAGCUAGAAUGUAACUUAAAGUAGGUCAAUGUUUAAAUUCGAUGUUGCAAUUUGUUUGGACAAGUGGAUUAAAACGUUCCUUGAAAAUCAUAUAAAGCAGCCAGUUUACGGGCUUGGGCGAAUUUGCGUCCAAAGGGUGAGGCCAGGUGUAAGUAAGAACCUACAAAAGCACUCACCAAAGGGUCAACUCGAUACAUU
B1: the binding result in the data set with APG09624 and in the data set with APG05405 was “binds” each time.
